B1: murine RANKL heterodimeric variant mD1 (mouse Dimer 1) (ligand)
chain 1: EAQPFAHLTINAASIPSGSHKVTLSSWYHDRGWADISNMTLSNGKLRVNQDGFYYLYANISFRHHETSGSVPTDYLQLMVYVVKTSIKIPSSHNLMKGGSTKNWSGNSEFHYYSINVGGFFKLRAGEEISIQVSNPSLLDPDQDATYFGAFKVQDID
chain 2: B1 chain 1 with D35K, F53Y, S61C, K97D, Y112F, F120Y
notes: range 160-316; Heterodimer of monomer A (His-tagged) and monomer B, co-expressed in E. coli; also called RANKL dimer 1; RANK-L Dimer 1; not shown: hexahistidine-tag fused to monomer A
B2: murine RANKL heterodimeric variant mD2 (mouse Dimer 2) (ligand)
chain 1: B1 chain 1 with T9V, D35K, S70K
chain 2: B1 chain 1 with T9V, D35K, F53Y, S61C, S70K, K97D, Y112F, F120Y
notes: range 160-316; Heterodimer of monomer A (His-tagged) and monomer B, co-expressed in E. coli; also called RANKL dimer 2; dRANKL D2; not shown: hexahistidine-tag fused to monomer A
B3: human RANK-Fc (Fc fusion, UniProt Q9Y6Q6 30-212, looked up)
chain: IAPPCTSEKHYEHLGRCCNKCEPGKYMSSKCTTTSDSVCLPCGPDEYLDSWNEEDKCLLHKVCDTGKALVAVVAGNSTTPRRCACTAGYHWSQDCECCRRNTECAPGLGAQHPLQLNKDTVCKPCLAGYFSDAFSSTDKCRPWTNCTFLGKRVEHHGTEKSDAVCSSSLPARKPPNEPHVYLP
notes: also called hRANK-Fc; hRANK-FC; not shown: Fc part of the bought fusion; not described
B4: murine RANK-Fc (Fc fusion, mouse, UniProt O35305 31-214, looked up)
chain: VTPPCTQERHYEHLGRCCSRCEPGKYLSSKCTPTSDSVCLPCGPDEYLDTWNEEDKCLLHKVCDAGKALVAVDPGNHTAPRRCACTAGYHWNSDCECCRRNTECAPGFGAQHPLQLNKDTVCTPCLLGFFSDVFSSTDKCKPWTNCTLLGKLEAHQGTTESDVVCSSSMTLRRPPKEAQAYLPS
notes: also called mRANK-Fc; mRANK-FC; not shown: Fc part of the bought fusion; not described

Experiment [1] addresses B4. Description: competitive ELISA on RANK-Fc coated wells, competitor flag-mRANKL (0-53 nM), anti-flag detection, global four parameter fit. How it is done:
The ability of dimer 1 and dimer 2 to compete with wild-type murine RANKL for binding to mRANK was investigated using a competitive ELISA. […] After washing off unbound RANKL, mRANK bound flag-mRANKL was detected by an anti-flag antibody. A RANKL dimer concentration dependant decrease in mRANK binding and right shift in the EC₅₀ of flag-mRANKL was observed (FIGS. 7 and 18B), indicating a competitive inhibition based mechanism. IC₅₀ values for dimer 1 and dimer 2 were calculated to be 4 nM by a global fit of the individual dose response curves using a four parameter logistic model.

The experiment “human RANK-Fc” concerns the target B3. The experiment is described as follows: SPR on hRANK-Fc, 37 C. How it is done: (§1) A Biacore experiment was performed to determine the kinetics of binding of the dimeric variants. hRANK-FC (Sigma) was captured in flow cell 2 at a level of 40 RU by a 60 s injection pulse of a 0.7 ug/ml hRANK-FC solution at a flow rate of 50 uL/min. Flow cell 1 served as reference cell. Subsequently, serial dilutions ranging from 562 nM to 100 pM of murine RANKL wt (R&D systems), or the purified RANKL dimers mD1 and mD2 were injected over both flow cells at 50 uL/min and 37° C. Binding was measured in real time. After each cycle the protein A surface was regenerated with a 30 s pulse of 10 mM Glycine pH 1.5. Kd values were calculated by fitting the data to a langmuir 1:1 binding model using the BIAevaluation software as described before (30). (Table 6 and FIG. 6).
(§2) Kinetic binding parameters were measured in real time using SPR. RANKL dimer binding curves were recorded using concentrations ranging from 100 pM to 562 nM dimer 1 (mD1) or dimer 2 (mD2), trimeric murine wild-type RANKL was used as a control. Measurements were performed at 37° C. The dissociation constants (KD) were determined by fitting the data to a Langmuir 1:1 interaction model. […] The binding off-rate constant (koff) of wild-type murine RANKL was ˜2 to 6 fold slower than for dimer 1 and dimer 2.

Experiment [2] addresses B4. Description: competitive ELISA on mRANK-Fc coated wells, competitor 2 nM flag-mRANKL WT, anti-flag detection. How it is done:
The ability of mD1 and mD2 to compete with mRANKL WT for binding to mRANK-Fc was investigated using a competitive ELISA. Serial dilutions of mD1 or mD2 (0-400 nM) and a fixed concentration (2 nM) of flag-mRANKL WT were added to mRANK-Fc coated wells. A dose-dependent decrease of flag-mRANKL WT binding was observed upon increasing concentrations of mD1 and mD2 (FIG. 18A).
In general terms: An ELISA detects its analyte on a solid surface through an enzyme-linked reagent.

In experiment [3] the target is B2. Description: SPR (Biacore), hRANK-Fc captured on protein A at 40 RU, 37 C, 1:1 Langmuir fit. How it is done:
as §1, §2
(In SPR one partner is held on a chip, and binding of the other changes the refractive index at the surface.)

The target in experiment [4] is B1. Described as above. The procedure:
as §1, §2

Experiment [5] concerns the target B2. The experiment is described as follows: SPR single cycle kinetics, hRANK-Fc captured at 20-40 RU, 1:1 fit. The procedure: (§3) Considering the high similarity between human RANKL and murine RANKL (>88%) the murine dimers were also tested for hRANK binding. Binding to hRANK-Fc and mRANK-Fc (both from R&D Systems) was recorded for five consecutive concentrations of murine flag RANKL WT, D1 (mD1) or D2 (mD2) (˜0.3-15 nM) using SPR with a single cycle kinetics based approach. The capture level of mRANK-Fc and hRANK-Fc was low (20-40 RU) in order to ensure 1:1 binding. Both WT and the D1 and D2 dimeric variants bound with high affinity towards the mRANK receptor and to the human RANK receptor (FIG. 16: Table 8).

The target of experiment [6] is B1. Described as above. How it is done:
as §3

Experiment [7] has as its target B2. The experiment is described as follows: SPR, mRANK-Fc captured at low density on C1 chip, 1:1 Langmuir fit, mean of three experiments. The procedure: (§4) SPR measurements were performed using ˜1500-2000 RU of captured mRANK-Fc on the surface of a CM5 sensor chip (FIGS. 15B and C). This is a density that results in a mean ratio of RANKL:RANK of approx 1:3 (52). […] (Table 5, below) In contrast, the ratio of binding of RANKL variants mD1 and mD2 to mRANK-Fc seems hardly to be affected by receptor density (Table 5). The values obtained after injecting 500 nM of the dimeric variants correlate to binding of 1.5 monomeric subunits by mD1 and 1.6 monomeric subunits by mD2.
(§5) Kinetic binding parameters were also measured for mD1 and mD2 binding to mRANK-FC in real time using SPR using murine RANKL-WT as a control (FIG. 15; table 8). RANKL dimer binding curves to mRANK-Fc captured at low density on the surface of a C1 sensorchip were recorded using concentrations ranging from 100 pM to 562 nM. At very low receptor density, RANKL proteins bind only one receptor molecule, allowing the data to be fitted to a Langmuir 1:1 interaction model (29). RANKL WT needed a very low density (<20 resonance units (RU)) to come close to a 1:1 ratio (FIG. 3A). […] Maximum binding of 5.5 RU is reached, which is slightly lower than the expected Rₘₐₓ value of 6.8 RU for a 1:1 ratio, but definitely larger than 3.4 RU, the Rₘₐₓ value expected for a binding ratio of 2 molecules of RANK per flag-mRANKL WT trimer. Similar to mRANKL WT, binding of RANKL mD1 or mD2 to mRANK-Fc results in slightly lower Rₘₐₓ values than expected for a 1:1 binding ratio: 24 RU D1 compared to 26 RU, and 20 RU D2 compared to 23 RU (FIG. 15A). These binding ratio's could be reached with mD1 and mD2 at densities of mRANK-Fc of <50 RU. The approximate 1:1 binding of RANKL proteins to mRANK-Fc allows fitting the data to the 1:1 Langmuir binding model.

Experiment [8] has as its target B1. The description is as above. The procedure:
as §4, §5

Experiment [9] addresses B2. The experiment is described as follows: SPR single cycle kinetics, mRANK-Fc captured at 20-40 RU, 1:1 fit. How it is done:
as §3

In experiment [10] the target is B1. The experiment is described as above. The procedure: as §3

Changes are numbered by the printed parent chain.

On to B1, for which the IC50 with murine RANK-Fc [1] turned out to be 4 nM; with murine RANK-Fc [2], 31 nM. In the experiment with human RANK-Fc, the “fold faster kon than wild-type murine RANKL” value is roughly 5 fold.

As for B2, the 50% inhibitory concentration (IC50) came to 4 nM in the experiment with murine RANK-Fc [1] and 28 nM with murine RANK-Fc [2]. Also, the “fold faster kon than wild-type murine RANKL” value with human RANK-Fc was roughly 10 fold.

Consider B3, for which the Ka amounted to 1.8e+10 M⁻¹ in experiment [3] and 2.33e+10 M⁻¹ in experiment [4]. Also, the Kd in experiment [3] is 0.0619 nM; in experiment [4] it was 0.0446 nM; in [5], 0.0259 nM; in [6], 0.129 nM. Besides, the koff in experiment [3] is 0.000554 s⁻¹; in [4], 0.000197 s⁻¹; in experiment [5], 0.000173 s⁻¹; in experiment [6], 0.00108 s⁻¹. Also, the association rate constant (kon) came to 8.55e+06 M⁻¹ s⁻¹ in [3], 4.52e+06 M⁻¹ s⁻¹ in experiment [4], 6.69e+06 M⁻¹ s⁻¹ in experiment [5] and 8.8e+06 M⁻¹ s⁻¹ in [6].

In [7], B4 displayed a Ka of 2.1e+11 M⁻¹, a Kd of 0.01 nM, an off-rate (koff) of 4.3e-05 s⁻¹ and an association rate constant (kon) of 4.9e+06 M⁻¹ s⁻¹. In [8], this molecule displayed a Ka of 2.7e+10 M⁻¹, a Kd of 0.146 nM, a koff of 0.00015 s⁻¹ and an on-rate constant (kon) of 5.8e+06 M⁻¹ s⁻¹. Moreover, in experiment [9], binding was characterised by a dissociation constant (Kd) of 0.00855 nM, the koff worked out at 5.76e-05 s⁻¹ and the kon is 6.73e+06 M⁻¹ s⁻¹. In [10], this molecule had a Kd of 0.0439 nM, an off-rate constant (koff) of 0.000247 s⁻¹ and an on-rate (kon) of 5.93e+06 M⁻¹ s⁻¹.

The IC50 is the concentration that gives 50% inhibition. By Kd is commonly meant a measure of binding affinity in units of concentration. High values mean weaker binding, low ones tighter binding. One may read the koff as the rate constant with which the complex falls apart. The kon is the second-order rate constant of association.

Values taken from patent publication US20140096274A1 (published 2014).
